Assay results as given in article PMC7424196 (iScience, 2020).
Read-outs that look alike come from different tables or passages of the source.

T1: γc extracellular domain (UniProt P34902 23-263)
T1 sequence (looked up): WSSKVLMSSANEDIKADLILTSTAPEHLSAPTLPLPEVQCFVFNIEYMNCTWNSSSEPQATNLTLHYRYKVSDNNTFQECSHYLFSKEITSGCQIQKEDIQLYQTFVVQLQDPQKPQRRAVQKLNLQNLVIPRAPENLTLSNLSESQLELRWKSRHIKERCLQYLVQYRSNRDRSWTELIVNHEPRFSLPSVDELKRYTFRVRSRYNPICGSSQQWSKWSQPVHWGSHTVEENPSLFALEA

B1: IL-7Rα extracellular domain (domain or fragment, UniProt P16872 21-239, looked up)
chain: ESGNAQDGDLEDADADDHSFWCHSQLEVDGSQHLLTCAFNDSDINTANLEFQICGALLRVKCLTLNKLQDIYFIKTSEFLLIGSSNICVKLGQKNLTCKNMAINTIVKAEAPSDLKVVYRKEANDFLVTFNAPHLKKKYLKKVKHDVAYRPARGESNWTHVSLFHTRTTIPQRKLRPKAMYEIKVRSIPHNDYFKGFWSEWSPSSTFETPEPKNQGGWD
B2: IL-2Rβ extracellular domain (domain or fragment, UniProt P16297 27-240, looked up)
chain: AVKNCSHLECFYNSRANVSCMWSHEEALNVTTCHVHAKSNLRHWNKTCELTLVRQASWACNLILGSFPESQSLTSVDLLDINVVCWEEKGWRRVKTCDFHPFDNLRLVAPHSLQVLHIDTQRCNISWKVSQVSHYIEPYLEFEARRRLLGHSWEDASVLSLKQRQQWLFLEMLIPSTSYEVQVRVKAQRNNTGTWSPWSQPLTFRTRPADPMKE

What was measured:
[1] = target: T1, γc extracellular domain; assay: SPR
[2] = target: T1, γc extracellular domain; assay: SPR; remark: listed apart in the source

Binder	Kd [1]	koff [1]	kon [1]	Kd [2]
B1	0.0373 ± 0.0004 µM	0.000221 s⁻¹	5930 M⁻¹ s⁻¹	
B2				577 ± 40 µM
